Test results: patent US7291458B2, “Leptin-mediated gene-induction” (Vlaams Interuniversitair Instituut Voor Biotechnologie VZW, priority 1998, dated 2007)

Assays:
[1] = tested on: PC12 cells; assay: RDA of PC12 cells transiently transfected with pMET7-mLRlo; type: cell-based, rat; conditions: leptin-forskolin co-stimulated versus forskolin alone
Experimental: To search for genes regulated by leptin in the PC12 cell line, a RDA (representational difference analysis) experiment was performed using a modification of the original method (Hubank and Schatz, 1994). Using this procedure, it is possible to clone amplicons corresponding to transcripts from leptin-forskolin co-stimulated PC12 cells, transiently transfected with pMET7-mLRlo. After three rounds of subtraction/amplification, selectively amplified bands were purified and subcloned in the pCDNA3 or pCR-Blunt vector (Invitrogen). […] Based on this observation, a simple one-tube RT-PCR based procedure was set up to select for PC12 subclones, stably expressing the leptin receptor long isoform (FIG. 2 portion A). One stable clone, PC12-LR8, was chosen for further experiments (FIG. 2 portion B). Individual inserts from the cloned amplicon collection were radiolabeled and leptin-dependent gene regulation was verified and studied in more detail by Northern blot analysis on the PC12-LR8 cell line.
RDA was used to clone differentially expressed cDNAs from PC12 cells, transiently transfected with the leptin receptor long isoform, or from neuronal differentiated PC12-LR8 cells, which stably express the leptin receptor long isoform. In both cases, cloning was performed using mRNA from cells either stimulated with leptin+forskolin or with forskolin alone. […]

[2] = tested on: differentiated PC12-LR8 cells; assay: RDA and Northern blot of leptin-responsive genes in differentiated PC12-LR8 cells; type: cell-based, rat; conditions: leptin 24 hours, continued presence of b-NGF and forskolin
Experimental: Adherent PC12-LR8 cells were treated with b-NGF and forskolin for 5 days to induce neuronal differentiation. Differentiated cells were treated with leptin (nF/L) for 24 hours, or were left untreated (nF), in the continued presence of b-NGF and forskolin. Non-differentiated cells were treated for 24 hours with leptin and forskolin (F/L) or with forskolin alone (F). Hybridization was performed with probes as indicated. Mouse b-actin probe was used as a control. Exposure to BioMax film at −80° C. was 3 days for Mx2, 3 hours for peripherin, 4 days for PAP III and 16 hours for b-actin.
The search for leptin-regulated genes was also extended to differentiated PC12 cells (FIG. 5). Adherent PC12-LR8 cells were treated with b-NGF and forskolin for 5 days, which led to a growth arrest, the formation of branched neuritic processes and the accumulation of small vesicles. Again, a RDA experiment was performed using mRNAs from differentiated cells treated with leptin for 24 hours, or from untreated cells, both in the continued presence of b-NGF and forskolin.
For neuronal differentiation, resuspended PC12 were seeded on rat tail collagen (Collaborative Biomedical Products) coated plates at 2-3 10^6 cells/25 cm^2 flask in RMPI 1640 medium with glutamax-I containing 10% heat-inactivated horse serum, 5% iFCS and gentamycin. […]

B1: leptin: mouse leptin (R&D Systems), ob gene product, used on PC12 cells at 100 ng/ml (protein)
chain: VPIQKVQDDTKTLIKTIVTRINDISHTQSVSAKQRVTGLDFIPGLHPILSLSKMDQTLAVYQQVLTSLPSQNVLQIANDLENLRDLLHLLAFSKSCSLPQTSGLQKPESLDGVLEASLYSTEVVALSRLQGSLQDILQQLDVSPEC
[1]
  induction of rat Pancreatitis Associated Protein I (rPAP I) transcript: strongly induced
[2]
  regulation of Mx2, Peripherin and PAP III transcripts: up-regulated
